Data taken from patent US20160264649A1.

Experiments:
Assay in all cases: cell-based or functional assay
[1] = target: HIV-1 MGRM-F1-013 Env (HIV-1)
[2] = target: HIV-1 MGRM-A-004 Env (HIV-1)
[3] = target: HIV-1 92UG031 Env (HIV-1)
[4] = target: HIV-1 MGRM-A-003 Env (HIV-1)
[5] = target: HIV-1 93UG077 Env (HIV-1)
[6] = target: HIV-1 93RW029 Env (HIV-1)
[7] = target: HIV-1 MGRM-A-009 Env (HIV-1)
[8] = target: HIV-1 MGRM-A-011 Env (HIV-1)
[9] = target: HIV-1 92RW026 Env (HIV-1)
[10] = target: HIV-1 94KE105 Env (HIV-1)
[11] = target: HIV-1 MGRM-A-002 Env (HIV-1)
[12] = target: HIV-1 MGRM-A-006 Env (HIV-1)
[13] = target: HIV-1 MGRM-A-005 Env (HIV-1)
[14] = target: HIV-1 92RW021 Env (HIV-1)
[15] = target: HIV-1 92RW008 Env (HIV-1)
[16] = target: HIV-1 92UG037 Env (HIV-1)
[17] = target: HIV-1 94UG103 Env (HIV-1)
[18] = target: HIV-1 MGRM-A-008 Env (HIV-1)
[19] = target: HIV-1 MGRM-A-001 Env (HIV-1)
[20] = target: HIV-1 92RW009 Env (HIV-1)
[21] = target: HIV-1 MGRM-A-014 Env (HIV-1)
HIV-1 VLGCA1 Env (HIV-1) = target: HIV-1 VLGCA1 Env (HIV-1)
[22] = target: HIV-1 MGRM-A-012 Env (HIV-1)
[23] = target: HIV-1 92RW024 Env (HIV-1)

| Substance | neutralization IC50 [2] [µg/mL] | neutralization IC50 [3] [µg/mL] | neutralization IC50 [4] [µg/mL] | neutralization IC50 [5] [µg/mL] | neutralization IC50 [6] [µg/mL] | neutralization IC50 [7] [µg/mL] | neutralization IC50 [8] [µg/mL] | neutralization IC50 [9] [µg/mL] | neutralization IC50 [10] [µg/mL] | neutralization IC50 [11] [µg/mL] | neutralization IC50 [12] [µg/mL] | neutralization IC50 [13] [µg/mL] | neutralization IC50 [14] [µg/mL] | neutralization IC50 [15] [µg/mL] | neutralization IC50 [16] [µg/mL] | neutralization IC50 [17] [µg/mL] | neutralization IC50 [18] [µg/mL] | neutralization IC50 [19] [µg/mL] | neutralization IC50 [20] [µg/mL] | neutralization IC50 [21] [µg/mL] | also measured |
| --- | --- | --- | --- | --- | --- | --- | --- | --- | --- | --- | --- | --- | --- | --- | --- | --- | --- | --- | --- | --- | --- |
| 2F5 (antibody) | 7.49 | 3.81 | 7.37 | 3.3 | > 50 | 9.4 | > 50 | 8.63 | > 50 | > 50 | 15.7 | 5.7 | 4.16 | 10.4 | 3.24 | 1.92 | > 50 | > 50 | 39.1 | 1.43 | IC50 (pseudovirus neutralization) [1]: 4.57 µg/mL; neutralization IC50 (HIV-1 VLGCA1 Env (HIV-1)): 3.9 µg/mL; neutralization IC50 [22]: 2.36 µg/mL; neutralization IC50 [23]: 8.22 µg/mL |
| 2G12 (antibody) | > 50 | > 50 | > 50 | > 50 | > 50 | 7.47 | > 50 | 17.2 | 7.22 | > 50 | 13.8 | > 50 | > 50 | 22.5 | 45.2 | 48.1 | > 50 | > 50 | 26.1 | > 50 | IC50 (pseudovirus neutralization) [1]: > 50 µg/mL; neutralization IC50 (HIV-1 VLGCA1 Env (HIV-1)): > 50 µg/mL; neutralization IC50 [22]: > 50 µg/mL; neutralization IC50 [23]: > 50 µg/mL |
| 4E10 (antibody) | 3.14 | 4.94 | 5.94 | 10.6 | 15.5 | 12 | 2.88 | 12.9 | 7.63 | 6.45 | 9.87 | 4.09 | 4.87 | 14.5 | 8.84 | 4.97 | 7.59 | 15.1 | > 50 | 1.74 | neutralization IC50 (HIV-1 VLGCA1 Env (HIV-1)): 4.58 µg/mL; neutralization IC50 [22]: 4.27 µg/mL; neutralization IC50 [23]: 8.88 µg/mL |
